Reference: CN105524166A (ATTOBIO (SUZHOU) CO LTD, dated 2016)

How the values were obtained:
[1] = molecular target: T1, His-HPV16E7融合蛋白 (human papillomavirus type 16 (HPV16), UniProt P03129 2-98); test: indirect ELISA, coated His-HPV16E7
T1 construct: Recombinant His fusion protein coated on ELISA plates; also called HPV16E7重组蛋白; His-HPV16E7重组蛋白; not shown: His tag
T1 sequence: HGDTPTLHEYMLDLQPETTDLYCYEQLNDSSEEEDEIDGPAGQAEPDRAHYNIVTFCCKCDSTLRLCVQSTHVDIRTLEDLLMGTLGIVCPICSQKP

[2] = molecular target: T2, His-HPV18E7融合蛋白 (human papillomavirus type 18 (HPV18), UniProt P06788 1-105); test: ELISA by the method of Beatty et al.: His-HPV18E7 coated at 8, 2, 0.5 and 0.125 μg/ml, MAB-F2 in two-fold dilutions from 8 μg/ml, mean of six K values
T2 construct: Recombinant His fusion protein coated on ELISA plates; also called HPV18E7重组蛋白; His-HPV18E7重组蛋白; not shown: His tag
T2 chain: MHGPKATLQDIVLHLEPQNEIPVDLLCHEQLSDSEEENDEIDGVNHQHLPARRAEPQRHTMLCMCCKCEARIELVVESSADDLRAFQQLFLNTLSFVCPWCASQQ

[3] = molecular target: T3, CaSki细胞表达的HPV16E7蛋白 (human papillomavirus type 16 (HPV16), UniProt P03129 2-98); test: immunocytochemistry on fixed, permeabilised CaSki cells
T3 construct: Endogenous, intracellular E7 of CaSki cells, tested in fixed, permeabilised cells (ICC); also called 表达HPV16E7的CaSki细胞; HPV16E7阳性细胞CaSki
T3 sequence: T1 sequence

B1: HPV18E7单克隆抗体MAB-F2 (antibody, V domains shown)
VH: LVQSGGGSVKPGGSLKLSCAASGFTFNRYDMSWFRQSPEKRLEWVAEIRNDGSKTHYSDTVTGRFTISRDNAKNTLYLEMSSLRSEDTAMYYCTRDSYGTVFAYWGQGTLVTVSA
VL: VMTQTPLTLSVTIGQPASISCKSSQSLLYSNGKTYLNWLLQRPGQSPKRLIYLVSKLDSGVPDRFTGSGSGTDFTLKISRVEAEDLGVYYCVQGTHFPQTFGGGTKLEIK
notes: also called mAb MAB-F2; anti-HPV18E7单抗MAB-F2
binding result [1]: no binding (tested: MAB-F2 1μg/ml; antigen coated at 2μg/ml)
Kd [2]: 2.67 nM
binding result [3]: no binding (tested: MAB-F2 5μg/ml)
